{"source": "patent US20060198900A1", "about": "“Bioactive Agent Compositions for Repair of Cell Injuries” (Nutritional Bioscience Limited, priority 2004, published 2006)", "origin": "cited, not measured here", "tested_on": "gastric damage", "conditions": "Playford et al. 1995", "data": [{"molecule": "hSP: recombinant human spasmolytic polyptide (hSP) (protein, UniProt Q03403 24-129, looked up) Trefoil factor 2: EKPSPCQCSRLSPHNRTNCGFPGITSDQCFDNGCCFDSSVTGVPWCFHPLPKQESDQCVMEVSDRRNCGYPGISPEECASRKCCFSNFIFEVPWCFFPKSVEDCHY", "values": [{"measurement": "reduction of gastric damage", "value": 50, "unit": "%"}]}]}
